The text below walks through data of patent CN114349858A (YOUMALI WUHAN BIOTECHNOLOGY CO LTD, dated 2022).

Broadly, the Kd is the concentration at which binding is half-saturated.

This assay addresses T1, 重组人IL-10蛋白 (human, UniProt P22301 19-178).
T1 construct: The construct used in the Biacore and ELISA assays is only called recombinant human IL-10 protein; also called 人白介素-10; 重组表达的人白介素-10
Put plainly: SPR, Biacore 3000; antibody immobilised on CM5 chip, recombinant human IL-10 at 20, 12.3, 4.1, 1.37 and 0.46 nM.

T1 sequence (P22301 19-178 limits assumed): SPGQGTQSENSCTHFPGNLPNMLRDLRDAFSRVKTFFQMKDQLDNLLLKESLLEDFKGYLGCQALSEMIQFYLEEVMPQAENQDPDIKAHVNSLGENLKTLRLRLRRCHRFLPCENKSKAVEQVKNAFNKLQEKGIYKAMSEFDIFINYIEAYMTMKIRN

B1: 抗人IL-10兔单克隆抗体B (antibody, V domains shown)
VH: QSLEESGGDLVKPGASLTLTCTASGFSFSGSYGICWVRQAPGKGLEWIACIVTSSGTTYYASWAKGRFTISKTSSTTVTLQMTSLTAADTATYFCARDLLAYYTGNLWGPGTLVTVSS
VL: ALVMTQTPASVEAAVGGTVTINCQASQSISNELSWYQQKPGQRPELLIYGASRLESGVPSRFSGSGSGTEFTLTISDLECDDAATYYCQSAYYSSSVDIYNTFGGGTEVVVKG
notes: Used biotin-labelled as the detection antibody in the sandwich ELISA; also called B抗体; 兔抗人IL-10单克隆抗体B
B1: the Kd was determined as 9.68 pM.
